Results published in patent publication US20240218054A1 (MABLOC, published 2024).
Changes are numbered by the printed parent chain.

B1: ADI-49154 (antibody, V domains shown)
VH: QVQLQESGPGLVKPSGTLSLTCAVSGSSITSSHWWSWVRQPPGKGLAWIGDIYHSGGTTYNPSLKSRVTISVDKSKNQFSLKLSSVTAADTAVYYCARVSVSTSAWYADYWGQGTLVTVSS
VL: QSVLTQPPSVSAAPGQKVTISCSGSSSNIGNNYVSWYQQLPGTAPKLLIYDNNKRPSGIPDRFSGSKSGTSATLGITGLQTGDEANYYCGTWDTSLSTVFGGGTKLTVL
notes: full-length IgG; also called Antibody Number 23
B2: ADI-49183 (antibody, V domains shown)
VH: QVQLVESGGGLVKPGGSLRLSCVASGFTFNNYYMRWMRQAPGKGLEWVSQISSSGSIKDYADSVKGRFTVSRDNAKNSLYLQLNSLRADDTAVYFCARELSSRIDYWGQGTLVTVSS
VL: QSALTQPASVSGSPGQSITISCTGTGSDVGGYNFVSWYQQHPGKAPKLMLYDVNNRPSGVSNRFSGSKSGNTASLTISGLQAEDEADYYCSSYPGTSALVIFGGGTRLTVL
notes: full-length IgG; also called Antibody Number 24
B3: ADI-42201 (antibody, V domains shown)
VH: EVQLVESGGGVVQPGRSLRLSCVASGFTLRSYGMHWVRQVPGKGLEWVAVSWYDGSNKHYADSVKGRFSISRDNSKNTLYLQMNSLRAEDTAVYYCARAQDGQQLVNYYGMDVWGQGTTVTVSS
VL: DIQMTQSPSSLSASVGDRVTITCRASQSISSYLNWYQQKPGEAPNLLIFAASILQSGVPSRFSGSGSGTDFTLTISSLQPEDFATYYCQQSYSTPYTFGQGTKVEIK
notes: full-length IgG; also called Antibody Number 25
B4: ADI-42144 (antibody, V domains shown)
VH: QVQLVESGGGVVQPGRSLRLSCAASGFTFSSYTMHWVRQAPGKGLEWVAVISYDGSNKYYADSVKGRFTISRDNSKNTLYLQMNSLRAEDTAVYYCARGGDYGDYESNNPAEYFQHWGQGTLVTVSS
VL: QSVLTQPPSVSGAPGQRVTISCTGSSSNIGAGYDVHWYQQLPGTAPKLLIYGNSNRPSGVPDRFSGSKSGTSASLAITGLQAEDEADYYCQSYDSSLSGHVVFGGGTKLTVL
notes: full-length IgG; also called Antibody Number 26
B5: ADI-50219 (antibody, V domains shown)
VH: QVQLQESGPGLVKPSETLSLTCTVSGDSISVSYWSWIRQFPGKGLEWIGYIYNSGNANYNPSLESRVTISIDTSKNRFSLRLSSVTAADTAVYYCAGHREDPYGAYGASWGQGTLVTVSS
VL: EIVLTQSPATLSSSPGERATLSCRASQSVNSYLVWYQQKPGQAPRLLIYDASNRATGIPARFTGSGSGTDFTLTISSLEPEDFAVYYCQQRTNWPFTFGQGTKVDIK
notes: full-length IgG; also called Antibody Number 27
B6: ADI-48897 (antibody, V domains shown)
VH: EVQLLESGPGLVKPSETLSLTCTVSGGSLSSDSHFWGWIRQPPGKGLEWIGYIYYSGNANYNPSLQSRVTISLDKSKNQFSLRLTSVTAADTAVYYCASRKEVRGTEDYFDYWGQGTLVTVSS
VL: B5 VL with S13L, S31R, V34A, T63S, Q89H, F96W, D105E
notes: full-length IgG; also called Antibody Number 28
B7: ADI-42194 (antibody, V domains shown)
VH: EVQLQESGPGLVKPSETLSLTCTVSGGSVSSGSYYWSWIRQPPGKGLEWIGYIYDSGNTNYNPSLKSRVTISVDTSKRQFSLRLTSVTAADTAVYYCAKVEEDGYTNVVRDYWGQGTLVTVSS
VL: EIVMTQSPATLSLSPGERATLSCRASQSVSNYLAWYQQKPGQAPRLLISDASSRATGIPARFRGSGSGTDFTLTISSLEPEDFAVYYCLQRTNWPFTFGPGTKVEIK
notes: full-length IgG; also called Antibody Number 29
B8: ADI-49189 (antibody, V domains shown)
VH: EVQLVESGGGLVKPGGSLRLSCAASGFTFSDYYMSWIRQAPGKGLECIACISSSGSMIYYADSVKGRFTISRDNAKNSLYLQLNSLRVEDTAVYYCAREGTRGRMDWGQGTLVTVSS
VL: QSVLTQPASVSGSPGQSITISCTGTSSDIGGYNYVSWYQQHPGKVPKLVIYDVSNRPSGVSNRFSGSKSGNTASLTISGLQAEDEADYYCSSYTSGTTLGVFGTGTKLTVL
notes: full-length IgG; also called Antibody Number 30
B9: ADI-49188 (antibody, V domains shown)
VH: EVQLLESGPGLVRPSGTLSLTCAVSGGSISTTDWWSWVRQPPGKGLEWIGEINQSGSTSYSPSFKSRVSISVDKSKRQFSLKLTSVTAADTAVYYCARDSWSGPTRNWFDPWGRGTLVTVSS
VL: QSVVTQPPSVSAAPGQKVTISCSGRSSNIGNSDVSWYQQFPGRAPKLLIYDNDERPSGIPDRFSGSKSGTSATLDITGLQTGDEADYYCGTWDSSLGGVIFGGGTKVTVL
notes: full-length IgG; also called Antibody Number 31
B10: ADI-42188 (antibody, V domains shown)
VH: EVQLLESGPGLVKPSGTLSLTCAVSGGSISSGNWWSWVRQPPGKGLEWIGEIYHSGSANYNPSLKSRVTISVDKSKNQFSLKLTSVTAADTAVYYCARVVWEYSNAWCVDFWGQGTTVTVSS
VL: QSVLTQPPSVSAAPGQKVTISCSGSSSNIGNNYVSWYQQLPGTAPKLLIYDNNKRPSGIPDRFSGSKSGTSATLGITGLQTGDEADYYCETWDSSLGVVVFGGGTKLTVL
notes: full-length IgG; also called Antibody Number 32
B11: ADI-50026 (antibody, V domains shown)
VH: EVQLLESGGGVVQPGRSLRLSCAASGFTFTTYAMHWVRQAPGKGLEWVAAVSYDGNNKYYADSVKGRFTISRDNSRNTLYLQMNSLRAEDTAVYFCARNTYYDRSGLIAYWGQGALVTVSS
VL: DIQVTQSPSSLSASVGDRVTITCQASQDISNYLNWYQHKPGRAPKLLIYDASNLERGVPSRFSGSGSGTDFTFTISSLQPEDIATYYCQQYDNLSRLTFGGGTKLEIK
notes: full-length IgG; also called Antibody Number 33
B12: ADI-42809 (antibody, V domains shown)
VH: QVQLVESGPGLVKPSGTLSLTCAVSGDSISSTNWWSWVRQPPGKGLEYIGEIFHSGSTNYNPFLKSRVTISVDKSKNHFSLKLSSVTAADTAVYYCARGPLKSYWYFDLWGRGTLVTVSS
VL: QSVLTQPPSVSAAPGQKVTISCSGSSSNIGNNYVSWYQQLPGTAPKLLIYDNNKRPSGIPDRFSGSKSGTSATLGITGLQTGDEADYYCGTWDTSLSAGRVFGGGTKLTVL
notes: full-length IgG; also called Antibody Number 34
B13: ADI-42151 (antibody, V domains shown)
VH: B12 VH with V5Q, D27G, T32S, Y48W, F53Y, N59T, F63S, H78Q, S103T
VL: B12 VL with L4V
notes: full-length IgG; also called Antibody Number 51
B14: ADI-46596 (antibody, V domains shown)
VH: QVQLQESGPGLVKPSGTLSLTCAVSGGSISSNNWWSWVRQPPGKGLEWIGDTYHSGSPSYNPSLKSRVTISVDKSKNEFSLKLSSVTAADTAVYFCARYCSGATCYGSNGMDVWGQGTTVTVSS
VL: B1 VL with V10M, Q38R, N53D, S71T, N86V, T94F, S95R, T98A, V99L
notes: full-length IgG; also called Antibody Number 35
B15: ADI-50205 (antibody, V domains shown)
VH: QVQLQESGGGVVQPGRSLRLSCAASGFTFSNFGMHWVRQAPGKGLEWVAIISYDRSNKDYADSVKGRFTISRDNSKNTLYLQMNSLRAEDTAVYYCAKDQCGGDCTADYWGQGTLVTVSS
VL: QSVLIQPASVSGSPGQSITISCTGTSSDVGGDKYVSWYQQHPGKAPKLVIYEVSNRPSGVSNRFSGSKSGNTASLTISGLQAEDEADYYCSSYTSSGTPVVCGGGTKVTVL
notes: full-length IgG; also called Antibody Number 36
B16: ADI-42830 (antibody, V domains shown)
VH: EVQLLESGPGLVRPSGTLSLTCAVSGASISSNHWWTWVRQPPGKGLEWIGEIYHSGSPTYNPSLKSRVTISVDKSKNQFSLKLNSVTAADTAVYYCASTLWGGPLSVASDYWGQGTLVTVSS
VL: B12 VL with N32Y, L40V, Q80H, D86E, T94S, L96P
notes: full-length IgG; also called Antibody Number 37
B17: ADI-49186 (antibody, V domains shown)
VH: QVQLVESGGGVVQPGRSLRLSCAASGFTFSNSGMHWVRQAPGQGLEWVALISYTGETKYYSDSLKARFTISRDNSKNTLYLQMSSLSNEDTAVYYCARDYYASGDGYFDYWGQGTLVTVSS
VL: DIVLTQSPDSLAVSLGERATINCKSSQSVLFGSNQKSCLAWYQQKPGQSPKLLIHWASTRESGVPDRFSGSGSGTDFTLTISSLQAEDVAVYYCQQYYSTPRTFGQGTKVEIK
notes: full-length IgG; also called Antibody Number 38
B18: ADI-46591 (antibody, V domains shown)
VH: QVQLQQWGPELVKPSGTLSLTCTVSGGSISSISWWSWVRQSPGKGLEWIGEINHSGSTVYNPSLKSRVTISVDKSKKQFSLKLRSVTAADTAVYYCVRYCSSTSCYGLNGMDVWGQGTTVTVSS
VL: B1 VL with N31S, Y33F, G75A, N86D, S95R, T98A, V99L, L106V
notes: full-length IgG; also called Antibody Number 39
B19: ADI-48955 (antibody, V domains shown)
VH: QVQLVQSGGGLVNPGGSLRLSCAASGFTFTDYYMSWIRQAPGKGLEWVSYISSSGNTRYYADSVKGRFTISRDNAKNSLSLQMNSLRPEDTAIYYCARDGSLVNAIDYWGQGTLVTVSS
VL: B12 VL with I29F, N32D, N53D, G99A, R100W, L108V
notes: full-length IgG; also called Antibody Number 40
B20: ADI-42818 (antibody, V domains shown)
VH: EVQLVESGPGLVKPSGTLSLTCAVSGGSITGSNWWSWVRQPPGKGLEWIGEIYHTGSTSYNPSLKSRVTISVDNSKNHFSLRLTSVTAADTAVYYCARVRWSGSTSWDLDYWGQGTLVTVSS
VL: B12 VL with L4V, K67T, D86V, L96P, R100G, L108V
notes: full-length IgG; also called Antibody Number 41
B21: ADI-50531 (antibody, V domains shown)
VH: EVTLKESGPTLVKPTQTLTLTCTFSGFSLSTSGVGVGWIRQPPGKALEWLALIYWDDDKRYSPSLKSRLTITKDTSKNQVVLTMTNMDPVDTATYYCAHSPRRITMVRGVIITWGDGMDVWGQGTTVTVSS
VL: B8 VL with S2P, I29V, V45A, V49M, G96S, T97S, G100A, T104G
notes: full-length IgG; also called Antibody Number 42
B22: ADI-46586 (antibody, V domains shown)
VH: B19 VH with Q1E, Q6E, N13K, S52T, R58K, S80F, P88A, I93V, Y95F, L102M
VL: B12 VL with S2P, N32D, A85G, T94S, G99A, R100W, L108V
notes: full-length IgG; also called Antibody Number 43
B23: ADI-49138 (antibody, V domains shown)
VH: QVQLVESGGGVVQPGRSLRLSCAASGFTFSNSGMHWVRQAPGKGLEWVSVIWYDESNKYYADSVKGRFTISRDNSKNTVYLQMNTLRAEDTAVYYCARDAYASGDGGIDYWGQGALVTVSS
VL: QPVLTQSASVSGSPGQSITISCTGTSSDVGGYKYVSWYQQHPGKAPKLMIYEVSNRPSGVSIRFSGSKSGNTASLTISGLQAADEADYYCSSYRSSGTPYVFGTGTKVTVL
notes: full-length IgG; also called Antibody Number 44

target: T1, recombinant YFV E protein (soluble E, sE; YFV Asibi strain) (Yellow fever virus, Asibi strain, UniProt Q6DV88 286-678); assay: BLI monovalent (IgG on tip)
T1 construct: also called YFV E antigen; YFV E monomer
T1 sequence (Q6DV88 286-678): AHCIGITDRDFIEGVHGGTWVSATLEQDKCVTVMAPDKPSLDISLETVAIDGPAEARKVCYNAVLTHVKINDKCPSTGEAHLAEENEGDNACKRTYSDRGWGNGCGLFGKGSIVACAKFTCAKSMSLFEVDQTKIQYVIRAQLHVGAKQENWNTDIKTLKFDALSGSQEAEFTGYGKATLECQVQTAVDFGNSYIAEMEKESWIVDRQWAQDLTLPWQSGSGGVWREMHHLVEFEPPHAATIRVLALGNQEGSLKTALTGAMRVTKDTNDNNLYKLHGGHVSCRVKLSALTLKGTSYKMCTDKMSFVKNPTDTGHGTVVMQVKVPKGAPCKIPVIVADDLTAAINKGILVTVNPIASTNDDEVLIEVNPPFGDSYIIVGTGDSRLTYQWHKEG

B1 was tested. Which Kd did it give?
Its Kd is 141 nM.

With B2 as the binder, how does the Kd read?
The Kd was 2.21 nM.

Which Kd does the source give for B3 here?
Its Kd is 113 nM.

Which Kd does the source give for B4 here?
The Kd was 10.9 nM.

B5 was tested. Which Kd did it give?
The Kd was 0.859 nM.

How did the Kd turn out when B6 was run?
Its Kd is 3.22 nM.

For B7, which Kd is on record?
The Kd was 5.44 nM.

With B8 as the binder, how does the Kd read?
The Kd was 12.7 nM.

Which Kd does the source give for B9 here?
The Kd was 9.54 nM.

Which Kd does the source give for B10 here?
Its Kd is 37.1 nM.

For B11, which Kd is on record?
Its Kd is over 100 nM.

With B12 as the binder, how does the Kd read?
Its Kd is 3.78 nM.

Which Kd does the source give for B13 here?
The Kd was 297 nM.

B14 was tested. Which Kd did it give?
The Kd was 5.11 nM.

How did the Kd turn out when B15 was run?
The Kd was 18.8 nM.

B16 was tested. Which Kd did it give?
The Kd was 3.48 nM.

Which Kd does the source give for B17 here?
Its Kd is 12.3 nM.

Which Kd does the source give for B18 here?
The Kd was 9.6 nM.

Which Kd does the source give for B19 here?
Its Kd is 2.05 nM.

Which Kd does the source give for B20 here?
The Kd was 2.41 nM.

How did the Kd turn out when B21 was run?
The Kd was over 100 nM.

For B22, which Kd is on record?
Its Kd is 2.16 nM.

B23 was tested. Which Kd did it give?
Its Kd is 17.5 nM.
